Consider two molecules from patent US20240010735A1 (EISAI R AND D MANAGEMENT, published 2024).

Experiment [1] addresses T1, human EphB4 extracellular region-SEAP-His protein (human, UniProt P54760 16-539).
T1 construct: extracellular domain; also called Eph receptor extracellular region-SEAP-His protein; not shown: secretory alkaline phosphatase (SEAP); histidine tag
T1 sequence (looked up): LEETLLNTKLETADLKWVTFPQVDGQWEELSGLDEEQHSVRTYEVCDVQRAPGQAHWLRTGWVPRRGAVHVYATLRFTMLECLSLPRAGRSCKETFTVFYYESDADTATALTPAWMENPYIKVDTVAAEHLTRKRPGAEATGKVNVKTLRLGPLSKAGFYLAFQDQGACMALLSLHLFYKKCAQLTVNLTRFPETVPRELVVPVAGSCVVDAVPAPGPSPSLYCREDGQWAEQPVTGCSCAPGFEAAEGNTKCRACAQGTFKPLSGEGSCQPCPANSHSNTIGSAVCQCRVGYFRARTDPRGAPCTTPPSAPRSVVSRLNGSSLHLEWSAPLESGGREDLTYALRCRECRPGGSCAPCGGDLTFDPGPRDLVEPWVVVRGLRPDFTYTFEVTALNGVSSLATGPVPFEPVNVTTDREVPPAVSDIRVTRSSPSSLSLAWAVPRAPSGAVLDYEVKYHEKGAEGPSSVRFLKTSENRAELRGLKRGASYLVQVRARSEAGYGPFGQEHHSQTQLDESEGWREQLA
Briefly: ELISA: SEAP-His proteins (1 nM) captured on anti-6-His antibody, antibody A 10 µg/mL with human IgG 100 µg/mL, HRP anti-mouse IgG, OD450 as % of human EphA4-SEAP-His. How it is done: (§1) Rabbit anti-6-His antibodies (Bethel Laboratories) were coated onto the wells of a 96-well plate (Nunc). After incubating at 4° C. overnight, the wells were blocked at room temperature for 1 hour by 1% Block Ace (DS Pharma Biomedical). After washing 3 times with 0.05% Tween 20/PBS (Thermo […]), each Eph receptor of human extracellular region-SEAP-His protein (final concentration 1 nM) was seeded into each well, and incubated at room temperature for 1 hour. After washing 3 times, human IgG solution (100 μg/mL, Mitsubishi Pharma Corporation) and antibody A (10 μg/mL) were supplemented to the wells, and incubated at room temperature for 1 hour. Horseradish peroxidase-labeled donkey anti-mouse IgG antibody (Jackson ImmunoResearch Laboratories) was added, and incubated at room, temperature for 1 hour. After washing 3 times, TMBZ (3,3′,5,5′-tetramethylbenzidine, Sigma) solution was added to the wells, and upon confirmation of modest coloring, an equal amount of quenching solution (1 N H₂SO₄, Wako Pure Chemicals) was added to the wells, and absorbance at 450 nm was read by a microplate reader (PerkinElmer).
On the technique in general: An ELISA detects its analyte on a solid surface through an enzyme-linked reagent.

Experiment [2] has as its target T2, human EphA2 extracellular region-SEAP-His protein (human, UniProt P29317 24-537).
T2 construct: extracellular domain; also called Eph receptor extracellular region-SEAP-His protein; not shown: secretory alkaline phosphatase (SEAP); histidine tag
The experiment is described as above. How it is done: as §1

In experiment [3] the target is T3, human EphA1 extracellular region-SEAP-His protein (human, UniProt P21709 26-547).
T3 construct: extracellular domain; also called Eph receptor extracellular region-SEAP-His protein; not shown: secretory alkaline phosphatase (SEAP); histidine tag
T3 sequence (looked up): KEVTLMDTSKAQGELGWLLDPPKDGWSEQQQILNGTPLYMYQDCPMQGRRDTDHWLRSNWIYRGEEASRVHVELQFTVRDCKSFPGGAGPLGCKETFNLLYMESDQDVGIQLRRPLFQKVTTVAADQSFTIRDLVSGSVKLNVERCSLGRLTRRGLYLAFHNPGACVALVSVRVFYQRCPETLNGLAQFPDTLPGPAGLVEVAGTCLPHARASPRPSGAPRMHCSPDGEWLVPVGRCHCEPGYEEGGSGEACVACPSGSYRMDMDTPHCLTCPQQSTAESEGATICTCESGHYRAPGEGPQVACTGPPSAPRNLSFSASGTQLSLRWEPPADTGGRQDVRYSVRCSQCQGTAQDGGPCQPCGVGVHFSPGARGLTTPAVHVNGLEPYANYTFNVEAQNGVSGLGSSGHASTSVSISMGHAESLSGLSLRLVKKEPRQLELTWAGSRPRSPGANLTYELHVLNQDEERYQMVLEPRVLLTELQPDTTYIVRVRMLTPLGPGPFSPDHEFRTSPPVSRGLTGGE
The description is as above. How it is done:
as §1

In experiment [4] the target is T4, human EphA4 extracellular region-SEAP-His protein (human, UniProt P54764 20-547).
T4 construct: also called human EphA4 extracellular region-SEAP-His 10; not shown: secretory alkaline phosphatase (SEAP); histidine tag
Briefly: SPR (Biacore T200): human EphA4 extracellular region-SEAP-His captured on anti-His antibody, antibody B 1.6-100 nM as analyte, 1:1 fit. The method, then:
The binding affinity of antibody B obtained in Example 1 against human EphA4 was determined by surface plasmon resonance (SPR method) employing Biacore T200 (GE Healthcare). First, anti-His antibodies (GE Healthcare, 28-9950-56) were fixed to a sensor chip CMS. Fixation was carried out by amine coupling method employing N-hydroxysuccinimide (NHS) and N-ethyl-N′-(3-dimethylaminopropyl) carbodiimide hydrochloride salt (EDC), and ethanolamine was employed for blocking (the sensor chip and reagents for fixation are all from GE Healthcare). This was diluted with the fixation buffer (10 mM sodium acetate, pH 4.5) to 3.5 μg/mL, and fixed onto the sensor chip according to the protocol accompanying Biacore T200. Human EphA4 extracellular region-SEAP-His 10 was diluted with the running buffer HBS-EP (GE Healthcare, BR-1001-88), and the solution was sent and captured onto the flow cell for 120 seconds (about 10 RU of captured amount). […] Fitting analysis by 1:1 binding model employing the software accompanying the system, BIA evaluation software, was carried out against the binding reaction curve obtained, and the affinity (KD=kd/ka) against human EphA4 was calculated.
(Surface plasmon resonance follows binding to a sensor surface in real time, without labels.)

T4 sequence (P54764 20-547): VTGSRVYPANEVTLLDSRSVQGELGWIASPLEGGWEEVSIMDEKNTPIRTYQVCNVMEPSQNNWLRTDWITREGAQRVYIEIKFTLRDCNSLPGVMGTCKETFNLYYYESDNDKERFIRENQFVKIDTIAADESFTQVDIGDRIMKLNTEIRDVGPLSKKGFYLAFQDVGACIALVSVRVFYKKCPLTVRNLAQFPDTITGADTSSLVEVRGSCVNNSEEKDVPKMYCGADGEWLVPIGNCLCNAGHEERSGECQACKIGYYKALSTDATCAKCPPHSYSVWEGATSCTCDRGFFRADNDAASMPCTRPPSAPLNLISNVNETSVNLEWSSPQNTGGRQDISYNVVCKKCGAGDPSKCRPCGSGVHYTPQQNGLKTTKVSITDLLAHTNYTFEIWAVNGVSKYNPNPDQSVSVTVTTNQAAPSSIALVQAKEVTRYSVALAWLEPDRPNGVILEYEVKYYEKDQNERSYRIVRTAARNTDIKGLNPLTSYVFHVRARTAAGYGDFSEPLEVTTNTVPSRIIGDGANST
T2 sequence (P29317 24-537): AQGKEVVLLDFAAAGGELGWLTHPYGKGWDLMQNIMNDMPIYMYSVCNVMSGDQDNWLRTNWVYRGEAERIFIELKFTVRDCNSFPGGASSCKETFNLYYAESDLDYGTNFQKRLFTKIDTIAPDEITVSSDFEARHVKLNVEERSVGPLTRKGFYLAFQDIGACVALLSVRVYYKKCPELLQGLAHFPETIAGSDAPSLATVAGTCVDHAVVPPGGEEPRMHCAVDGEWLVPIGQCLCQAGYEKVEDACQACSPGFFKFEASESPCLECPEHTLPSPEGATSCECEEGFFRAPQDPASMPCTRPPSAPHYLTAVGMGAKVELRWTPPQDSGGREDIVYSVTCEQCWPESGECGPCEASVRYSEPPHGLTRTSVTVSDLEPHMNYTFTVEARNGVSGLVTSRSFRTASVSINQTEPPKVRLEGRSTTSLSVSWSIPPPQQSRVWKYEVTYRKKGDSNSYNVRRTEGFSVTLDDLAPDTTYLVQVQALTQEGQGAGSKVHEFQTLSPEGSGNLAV

B1: mouse anti-EphA4 monoclonal antibody (antibody A) (antibody, mouse IgG1, kappa, V domains shown)
VH: QVQLKQSGPSLVQPSQSLSITCTVSGFSLTRYGVHWVRQSPGKGLEWLGVIWRGGSTDYNAAFMSRLSITKDNSKSQVFFKMNSLQADDTAIYYCAKESLFGVYYDYGYYSMDYWGQGTSVTVSS
VL: DIQMTQSPSSLSASLGERVSLTCRASQEISGYLSWLQQKPDGTIKRLIYAASTLDSGVPKRFSGSRSGSDYSLTISSLESEDFADYYCLQYASYPLTFGAGTKLELKR
notes: purified from hybridoma supernatant
For B1, the binding result in experiment [1], in experiment [2] and in experiment [3] was “no binding (tested: 10 µg/mL)” each time.

B2: humanized anti-EphA4 monoclonal antibody (antibody B) (antibody, human IgG2, V domains shown)
VH: QVQLVESGGGVVQPGRSLRLSCAVSGFSLTRFGVHWVRQAPGKGLEWVAVIWRGGSTDYNAAFMSRLTISKDNSKNTVYLQMNSLRAEDTAVYYCAKESLFGVYYDYGYYSMDYWGQGTTVTVSS
VL: DIQMTQSPSSLSASVGDRVTITCRASQEISGYLSWLQQKPGKAPKRLIYAASTLDSGVPSRFSGSRSGTEYTLTISSLQPEDFATYYCLQYASYPLTFGGGTKVEIKR
notes: expressed in Expi293F cells; also called humanized antibody of antibody A; HK2-42 / L1-8
As usually defined, the koff is a measure of how fast the partners let go of each other. Read a low koff as slow dissociation. The kon is the rate constant with which the complex forms. In experiment [4], B2 yielded an off-rate (koff) of 0.000494 s⁻¹ and an association rate constant (kon) of 370000 M⁻¹ s⁻¹.
